This assay addresses Sbi-III-IV (amino acids 150-266), domains III and IV of Sbi (S. aureus strain Mu50, UniProt Q99RL2 150-266). Kind of assay: SPR.

B1: C3a anaphylatoxin (domain or fragment)
chain: not shown
As to B1, the Kd is 19.8 µM.
